Assay results: IntAct's records for PubMed 23942232

B1: TNF receptor-associated factor 6 (Mus musculus), P70196 (parent)
chain: MSLLNCENSCGSSQSSSDCCAAMAASCSAAVKDDSVSGSASTGNLSSSFMEEIQGYDVEFDPPLESKYECPICLMALREAVQTPCGHRFCKACIIKSIRDAGHKCPVDNEILLENQLFPDNFAKREILSLTVKCPNKGCLQKMELRHLEDHQVHCEFALVNCPQCQRPFQKCQVNTHIIEDCPRRQVSCVNCAVSMAYEEKEIHDQSCPLANIICEYCGTILIREQMPNHYDLDCPTAPIPCTFSVFGCHEKMQRNHLARHLQENTQLHMRLLAQAVHNVNLALRPCDAASPSRGCRPEDPNYEETIKQLESRLVRQDHQIRELTAKMETQSMYVGELKRTIRTLEDKVAEMEAQQCNGIYIWKIGNFGMHLKSQEEERPVVIHSPGFYTGRPGYKLCMRLHLQLPTAQRCANYISLFVHTMQGEYDSHLPWPFQGTIRLTILDQSEALIRQNHEEVMDAKPELLAFQRPTIPRNPKGFGYVTFMHLEALRQGTFIKDDTLLVRCEVSTRFDMGGLRKEGFQPRSTDAGV

Variants of: B1
Conditions: with ern1_mouse Ern1, Q9EQY0
ern1_mouse Ern1, Q9EQY0, sequence (Q9EQY0 whole entry): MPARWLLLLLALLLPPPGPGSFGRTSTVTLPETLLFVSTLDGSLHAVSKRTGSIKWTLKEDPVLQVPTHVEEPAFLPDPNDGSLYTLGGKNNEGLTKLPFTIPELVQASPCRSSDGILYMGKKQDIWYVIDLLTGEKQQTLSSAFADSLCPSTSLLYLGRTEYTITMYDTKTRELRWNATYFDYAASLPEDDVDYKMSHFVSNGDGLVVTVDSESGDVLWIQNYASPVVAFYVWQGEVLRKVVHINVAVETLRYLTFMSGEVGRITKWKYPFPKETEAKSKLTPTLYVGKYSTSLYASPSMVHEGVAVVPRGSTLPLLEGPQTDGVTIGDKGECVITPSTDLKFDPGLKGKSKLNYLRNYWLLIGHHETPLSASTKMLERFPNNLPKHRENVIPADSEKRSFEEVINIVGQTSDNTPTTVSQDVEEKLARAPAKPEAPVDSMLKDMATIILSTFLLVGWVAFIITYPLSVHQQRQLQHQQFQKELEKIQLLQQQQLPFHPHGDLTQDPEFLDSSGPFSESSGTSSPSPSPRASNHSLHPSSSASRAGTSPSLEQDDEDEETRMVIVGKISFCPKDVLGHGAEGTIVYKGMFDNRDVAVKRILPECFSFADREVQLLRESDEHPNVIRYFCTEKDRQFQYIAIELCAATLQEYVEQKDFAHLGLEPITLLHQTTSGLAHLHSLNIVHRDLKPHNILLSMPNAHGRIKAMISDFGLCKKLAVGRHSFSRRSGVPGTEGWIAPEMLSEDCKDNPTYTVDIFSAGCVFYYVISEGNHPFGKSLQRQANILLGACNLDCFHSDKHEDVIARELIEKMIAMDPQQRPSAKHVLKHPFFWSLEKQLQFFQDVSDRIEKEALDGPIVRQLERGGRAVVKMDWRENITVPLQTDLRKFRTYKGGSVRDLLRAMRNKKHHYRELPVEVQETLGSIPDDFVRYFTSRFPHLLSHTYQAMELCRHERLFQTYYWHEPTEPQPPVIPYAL

Row | effect of a mutation on the interaction | Variant
1 | increasing interaction | MSLLNCENSCGSSQSSSDCCAAMAASCSAAVKDDSVSGSASTGNLSSSFMEEIQGYDVEFDPPLESKYEAPICLMALREAVQTPCGHRFCKACIIKSIRDAGHKCPVDNEILLENQLFPDNFAKREILSLTVKCPNKGCLQKMELRHLEDHQVHCEFALVNCPQCQRPFQKCQVNTHIIEDCPRRQVSCVNCAVSMAYEEKEIHDQSCPLANIICEYCGTILIREQMPNHYDLDCPTAPIPCTFSVFGCHEKMQRNHLARHLQENTQLHMRLLAQAVHNVNLALRPCDAASPSRGCRPEDPNYEETIKQLESRLVRQDHQIRELTAKMETQSMYVGELKRTIRTLEDKVAEMEAQQCNGIYIWKIGNFGMHLKSQEEERPVVIHSPGFYTGRPGYKLCMRLHLQLPTAQRCANYISLFVHTMQGEYDSHLPWPFQGTIRLTILDQSEALIRQNHEEVMDAKPELLAFQRPTIPRNPKGFGYVTFMHLEALRQGTFIKDDTLLVRCEVSTRFDMGGLRKEGFQPRSTDAGV [C70A]
